The values below come from US10471163B2, “Activatable fibrin-binding probes” (priority 2013, dated 2019).

Assay [1] concerns the target DD(E) (soluble protein fragment of fibrin) (Homo sapiens, UniProt P02671+P02675+P02679). The conditions noted are these: known value used for the competition assay; read-out: dissociation constant (Kd) of the TRITC-Tn6 probe for DD(E), known value; cited from earlier work.
In a further assay the target is fibrin fragment DD(E) (Homo sapiens, UniProt P02671+P02675+P02679). In words: Direct binding to DD(E) by fluorescence anisotropy. As to conditions: serial dilution of DD(E). Here is the method:
The binding constants of the TRITC-Tn6-MDS probe and its activated cyclic form were then measured with the fibrin fragment DD(E). A serial dilution of the DD(E) protein was prepared and then mixed with the two probes. […] Therefore, the disulfide linkage of this probe can act as a switch for binding.

The target of assay [2] is T1, PDI (Homo sapiens, UniProt P07237). The assay can be described thus: Real-time fluorescence anisotropy assay of TRITC-Tn6-MDS activation in presence of DD(E). Format: biochemical. The conditions noted are these: only when both PDI and DTT are present simultaneously; 2 μM DD(E). Here is the method:
These experiments were conducted in the same assay buffer as was used for the LC-MS experiment described above.
(Fluorescence polarisation rises when a labelled molecule tumbles more slowly, as on binding a larger partner.)

Assay [3] concerns the target T1, PDI. The assay can be described thus: LC-MS analysis of conversion of TRITC-Tn6-MDS to cyclized form. The assay is classed as biochemical. Here is the method:
This mixed disulfide (MDS) probe, denoted as TRITC-Tn6-MDS, was then tested to determine whether it could be recognized as a substrate by PDI. Conversion of the probe from the mixed-disulfide (MDS) form to the cyclized form was followed by LC-MS under three sets of reaction conditions (PDI alone; DTT alone; and PDI+DTT). The assay buffer for these experiments was 50 mM TRIS, 100 mM NaCl, 2 mM CaCl, and 0.1% Triton X-100.

For orientation: Kd means the free concentration of one partner at which half of the binding sites on the other are occupied at equilibrium, for simple one-to-one binding.

Numbered stars: 1 amine (or outer) side, 2 acyl side, 3 side chain; on linkers, the order of the positions; unused ones are H or OH. Bridge positions count the residues as written; N and C are the ends. TRITC = tetramethylrhodamine dye; Cysteamine = C(CS[*:2])N[*:1]; Ahx = NCCCCCC(=O)O

T1 sequence (P07237 18-508, species assumed): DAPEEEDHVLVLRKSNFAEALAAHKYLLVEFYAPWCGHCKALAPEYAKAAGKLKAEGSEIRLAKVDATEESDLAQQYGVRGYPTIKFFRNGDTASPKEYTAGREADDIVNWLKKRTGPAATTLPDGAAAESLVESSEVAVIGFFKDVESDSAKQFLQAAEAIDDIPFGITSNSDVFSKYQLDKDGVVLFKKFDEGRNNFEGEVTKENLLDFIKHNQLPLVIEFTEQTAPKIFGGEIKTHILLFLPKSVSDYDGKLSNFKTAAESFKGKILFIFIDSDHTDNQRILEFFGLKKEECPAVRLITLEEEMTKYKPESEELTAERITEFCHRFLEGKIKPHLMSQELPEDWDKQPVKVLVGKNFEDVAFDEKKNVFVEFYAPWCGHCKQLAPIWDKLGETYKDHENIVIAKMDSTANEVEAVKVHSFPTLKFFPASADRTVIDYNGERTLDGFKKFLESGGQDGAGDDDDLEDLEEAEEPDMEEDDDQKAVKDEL
Sequence of DD(E) (soluble protein fragment of fibrin) (P02671 130-216): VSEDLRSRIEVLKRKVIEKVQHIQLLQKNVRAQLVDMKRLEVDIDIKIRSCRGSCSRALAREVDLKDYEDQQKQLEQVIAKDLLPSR
Sequence of DD(E) (soluble protein fragment of fibrin) (P02675 164-491): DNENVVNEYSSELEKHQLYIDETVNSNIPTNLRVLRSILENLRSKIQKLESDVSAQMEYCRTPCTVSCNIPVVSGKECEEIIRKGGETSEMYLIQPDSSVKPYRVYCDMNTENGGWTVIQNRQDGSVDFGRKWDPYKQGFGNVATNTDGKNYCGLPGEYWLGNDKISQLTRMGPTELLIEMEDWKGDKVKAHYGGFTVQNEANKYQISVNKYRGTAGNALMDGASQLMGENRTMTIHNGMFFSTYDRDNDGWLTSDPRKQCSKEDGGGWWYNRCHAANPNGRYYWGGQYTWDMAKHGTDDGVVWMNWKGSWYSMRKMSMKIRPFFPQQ
Sequence of DD(E) (soluble protein fragment of fibrin) (P02679 114-432): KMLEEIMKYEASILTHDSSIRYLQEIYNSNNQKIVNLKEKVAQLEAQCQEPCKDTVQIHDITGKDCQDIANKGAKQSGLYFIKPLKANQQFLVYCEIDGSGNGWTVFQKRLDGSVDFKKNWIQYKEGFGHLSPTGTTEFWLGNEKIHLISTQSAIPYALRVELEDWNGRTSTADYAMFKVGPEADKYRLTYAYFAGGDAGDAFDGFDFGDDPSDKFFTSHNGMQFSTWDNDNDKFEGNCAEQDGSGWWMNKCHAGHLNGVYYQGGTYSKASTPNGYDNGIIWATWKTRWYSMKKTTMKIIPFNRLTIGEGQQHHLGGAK
Sequence of DD(E) (soluble protein fragment of fibrin) (P02671 36-97): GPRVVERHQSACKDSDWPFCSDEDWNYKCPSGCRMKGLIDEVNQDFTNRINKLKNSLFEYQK
Sequence of DD(E) (soluble protein fragment of fibrin) (P02675 45-152): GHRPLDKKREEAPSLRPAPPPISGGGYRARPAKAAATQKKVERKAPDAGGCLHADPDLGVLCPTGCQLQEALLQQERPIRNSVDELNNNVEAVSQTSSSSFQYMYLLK
Sequence of DD(E) (soluble protein fragment of fibrin) (P02679 27-88): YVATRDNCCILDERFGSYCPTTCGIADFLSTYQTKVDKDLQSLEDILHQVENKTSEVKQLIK
Sequence of fibrin fragment DD(E) (P02671 130-216): as the sequence (P02671 130-216) above
Sequence of fibrin fragment DD(E) (P02675 164-491): as the sequence (P02675 164-491) above
Sequence of fibrin fragment DD(E) (P02679 114-432): as the sequence (P02679 114-432) above
Sequence of fibrin fragment DD(E) (P02671 36-97): as the sequence (P02671 36-97) above
Sequence of fibrin fragment DD(E) (P02675 45-152): as the sequence (P02675 45-152) above
Sequence of fibrin fragment DD(E) (P02679 27-88): as the sequence (P02679 27-88) above

With “TRITC-Tn6: fluorescent peptide structurally similar to EP-2104R that binds the same site on DD(E) ({TRITC-Ahx}-QWECPYGLCWIQ-NH2; disulfide 4-9 (inferred))”, the Kd in assay [1] was 0.51 µM.

As for “TRITCAha -QWECPYGLCWIQ-NH2 ({TRITC-Ahx}-QWEC(Cysteamine)PYGLC(Cysteamine)WIQ-NH2) [TRITC-Tn6-MDS, linear optical probe; N-terminal tetramethylrhodamine via 6-aminohexanoic acid linker; two cysteines protected as mixed disulfides with cystamine]”, the “Kd for DD(E) relative to that of the cyclic form” value in the assay with fibrin fragment DD(E) is “roughly 20 fold”. In the assay with PDI [2], the “activation of the probe (cyclization and binding to DD(E))” value is “efficiently activated”. Also, the “conversion of mixed-disulfide form to cyclized form” value with PDI [3] (PDI alone) was “does not promote cyclization”; in the assay with PDI [3] (PDI in the presence of DTT, compared to DTT alone), “rapid conversion”.
